Measurements reported in patent publication US20250281533A1 (LG CHEM, published 2025).

T1: C subunit of human MUC1 expressed in HEK293T cells (HEK293T-v1) (human, UniProt P15941 1098-1255, limits assumed)
T1 construct: domain: C subunit of MUC1; also called MUC1-C
T1 sequence (looked up): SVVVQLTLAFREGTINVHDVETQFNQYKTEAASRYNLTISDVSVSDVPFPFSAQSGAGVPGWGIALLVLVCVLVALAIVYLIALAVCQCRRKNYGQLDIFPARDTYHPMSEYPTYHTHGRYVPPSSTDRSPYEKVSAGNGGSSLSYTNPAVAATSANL


Experiments:
[1] = target: T1, C subunit of human MUC1 expressed in …; test: flow cytometry (PE MFI, corrected to G03 at 380 ug/mL) on HEK293T-v1 cells expressing MUC1 C subunit
Experimental: (§1) The soluble scFv prepared in Example 1 was diluted 5-fold to prepare a total of 8 serial dilutions. Each serial dilution was 380 μg/mL, 76 μg/mL, 15.2 μg/mL, 3.04 μg/mL, 0.608 μg/mL, 0.1216 μg/mL, 0.02432 μg/mL, 0.004864 μg/mL. A buffer used in soluble scFv dilution and cell washing was PBS containing 2% FBS and 10 mM EDTA. Four kinds of cells were prepared at a density of 1×10⁶/mL, respectively, and put in a 96 well U-bottom cell culture plate at a density of 1×10⁵/100 μl/well, followed by centrifugation at 1500 RPM for 5 minutes. The soluble scFv prepared previously was treated in an amount of 50 μl/well. The cells were left at 4° C. for 1 hour. 150 μl/well of the cell washing buffer was added thereto and then mixed, followed by centrifugation at 1500 RPM for 5 minutes. The supernatant was discarded, and 200 μl/well of the cell washing buffer was added thereto and then mixed, followed by centrifugation at 1500 RPM for 5 minutes. A goat anti-human IgG Fc-biotin antibody (Invitrogen, A18821) was diluted 500-fold, and 50 μl/well thereof was treated. The cells were left at 4° C. for 20 minutes. 150 μl/well of the cell washing buffer was added thereto and then mixed, followed by centrifugation at 1500 RPM for 5 minutes. The supernatant was discarded, and 200 μl/well of the cell washing buffer was added thereto and then mixed, followed by centrifugation at 1500 RPM for 5 minutes. PE-Streptavidin (BD Pharmigen, 554061) was diluted 1000-fold, and 50 μl/well thereof was treated. The cells were left at 4° C. for 20 minutes. 150 μl/well of the cell washing buffer was added thereto and then mixed, followed by centrifugation at 1500 RPM for 5 minutes. The supernatant was discarded, and 200 μl/well of the cell washing buffer was added thereto and then mixed, followed by centrifugation at 1500 RPM for 5 minutes. 80 μl/well of the cell washing buffer was added and mixed, followed by flow cytometry.
The affinity of the soluble scFv to the mucin1-expressing cells was confirmed by PE MFI values from the results of the flow cytometry. Each cell line without soluble scFv was stained with another fluorescent antibody (Goat anti-human IgG Fc-biotin antibody, PE-Streptavidin), which was used as a negative control value, and each cell line was treated with G03 at a concentration of 380 μg/mL, which was used as a positive control value, and MFI value was corrected as follows: […]

[2] = target: T1, C subunit of human MUC1 expressed in …; test: flow cytometry (PE MFI, corrected to G03 at 380 ug/mL) on HEK293T-v1 cells expressing MUC1 C subunit; 293T-v1 cells
Experimental: as §1, with “PE-Streptavidin (BD Pharmigen, 554061) was diluted 1000-fold, and 50 μl/well thereof was treated. The cells were left at 4° C. for 20 minutes. 150 μl/well of the cell washing buffer was added thereto and then mixed, followed by centrifugation at 1500 RPM for 5 minutes. The supernatant was discarded, and 200 μl/well of the cell washing buffer was added thereto and then mixed, followed by centrifugation at 1500 RPM for 5 minutes. 80 μl/well of the cell washing buffer was added and mixed, followed by flow cytometry.” left out

EC50 [2] [µg/mL] | Binder | EC50 [1] [µg/mL]
– | scFv 2447_3B07 (scFv) scFv: QVQLVESGGVVVQPGGSLRLSCAASGFTFDDYAMHWVRQAPGRGLEWVSLTSWDGGSTYYADSVKGRFTISRDNSKNSLYLQMNSLRAEDTALYYCAKDHSSGWYNGGMDVWGQGTMVTVSSGGGGSGGGGSGGGASSYELTQDPAVSVALGQTVRITCQGDSLRSYYASWYQQKPGQAPVLVIYGKNNRPSGIPDRFSGSSSGNTASLTITGAQAEDEADYYCNSRDSSGNHVVFGGGTKLTVL | 3.86
– | scFv 2447_3H02 (scFv, also called #9) scFv: EVQLLESGGGLVQPGRSLRLSCAASGFTFDDYAMHWVRQAPGKGLEWVSGISWDSGSIGYADSVKGRFTISRDNAKNSLYLQMNSLRAEDTALYYCAKDVSSGWYWYAFDIWGQGTLVTVSSGGGGSGGGGSGGGASSYELTQDPAVSVALGQTVRITCQGDILRSYYASWYQQKPGQAPVLVIYGKNNRPSGIPDRFSGSSSGNTASLTITGAQAEDEADYYCNSRDSSGNRVVFGGGTKLTVL | 1.41
– | scFv 2447_2H08 (scFv) scFv: EVQLVQSGAEVKKPGASVKVSCKASGYTFTNYGISWVRQAPGQGLEWMGWISAYNGNTNYAQKLQGRVTMTTDTSTSTAYMELRSLRSDDTAVYYCARDPHILTGYYRGGWFDPWGQGTTVTVSSGGGGSGGGGSGGGASSYELTQDPAVSVALGQTVTITCQGDSLRTSYAGWLQQKPGQAPVLVLYGKTSRPSGIPDRFSGSTSGNTASLTITGAQAEDEAEYFCHSRDSNDNYLEVVFGGGTKLTVL | 21.7
– | scFv 2447_3H08 (scFv, also called #10) scFv: EVQLLESGGGLVQPGRSLRLSCAASGFTFDDYAMHWVRQAPGKGLEWVSGISWNSGSIDYADSVKGRFTISRDNSKNTLYLQMNSLRAEDTAVYYCARDRSSGWYTGSFDYWGQGTLVTVSSGGGGSGGGGSGGGASSYELTQDPAVSVALGQTVRITCQGDSLRSYYASWYRQKPGQAPVLVIYGKNNRPSGIPDRFSGSSSGNTASLTIIGAQAEDEADYYCQSRDSSDNRVLFGGGTKVTVL | 2.57
> 380 | scFv 2445_1F09 (scFv) scFv: EVQLLETGGGLIQPGGSLRLSCAASGFTVSSNYMSWVRQAPGKGLEWVSVIYSGGSTYYADSVKGRFTISRDNSKNTLYLQMNSLRAEDTAVYYCARDRGWNHGMDVWGQGTLVTVSSGGGGSGGGGSGGGASQSGLTQPPSASGTPGQRVTISCSGGSSEVGSRYVSWYQQLPGTAPRLLIYKNDRRPSGVPDRFSGSKSGSSASLAISGLRSEDEADYYCAAWDDSLNGYVFGTGTKLTVL | –
